Where “and” joins values, the source holds several entries; their conditions need not be identical. Identical values can stand only once. Square brackets hold non-standard residues; d marks the D form. Ends that are not written are not given here. NMeI = CC[C@H](C)[C@H](NC)C(=O)O; hArg = N=C(N)NCCCC[C@H](N)C(=O)O; Orn = NCCC[C@H](N)C(=O)O
T1: Ac-VQIINK-NH2
T1 peptide: Ac-VQIINK-NH2

B1: W(hR)I(hR)I(hR)W (peptide)
peptide: W[hArg]I[hArg]I[hArg]W
B2: RIRIWIW (peptide)
peptide: RIRIWIW
B3: IRIWLW (peptide)
peptide: IRIWLW
B4: RIWIYWFR (peptide)
peptide: RIWIYWFR
B5: WKVQVRLW (peptide)
peptide: WKVQVRLW
B6: WRIFIRYW (peptide)
peptide: WRIFIRYW
B7: RIRLYIW (peptide)
peptide: RIRLYIW
B8: RIRIWRW (peptide)
peptide: RIRIWRW
B9: WRIWARYW (peptide)
peptide: WRIWARYW
B10: RIWIRYWW (peptide)
peptide: RIWIRYWW
B11: WRAWIRYW (peptide)
peptide: WRAWIRYW
B12: WRLWIHWW (peptide)
peptide: WRLWIHWW
B13: IRWRIRW (peptide)
peptide: IRWRIRW
B14: LWWIRIRYW (peptide)
peptide: LWWIRIRYW
B15: WRIWIREW (peptide)
peptide: WRIWIREW
B16: WRIRIWYW (peptide)
peptide: WRIRIWYW
B17: LRIWIRYW (peptide)
peptide: LRIWIRYW
B18: RWWIRIRYW (peptide)
peptide: RWWIRIRYW
B19: HWKIIWYR (peptide)
peptide: HWKIIWYR
B20: YRIRLRY (peptide)
peptide: YRIRLRY
B21: IWIRYWWR (peptide)
peptide: IWIRYWWR
B22: WRVWGWVRW (peptide)
peptide: WRVWGWVRW
B23: RIRLYWW (peptide)
peptide: RIRLYWW
B24: HWWIRIRYW (peptide)
peptide: HWWIRIRYW
B25: RIRLWYW (peptide)
peptide: RIRLWYW
B26: WRIWLYWR (peptide)
peptide: WRIWLYWR
B27: WIRIRYW (peptide)
peptide: WIRIRYW
B28: IRIRWRW (peptide)
peptide: IRIRWRW
B29: RIRIWYW (peptide)
peptide: RIRIWYW
B30: RIRIRIW (peptide)
peptide: RIRIRIW
B31: FRIRIRF (peptide)
peptide: FRIRIRF
B32: WYOLOIOW (peptide)
peptide: WY[Orn]L[Orn]I[Orn]W
B33: WIRYWIRW (peptide)
peptide: WIRYWIRW
B34: WRIEIRYW (peptide)
peptide: WRIEIRYW
B35: RIWLWYR (peptide)
peptide: RIWLWYR
B36: FRIKLRW (peptide)
peptide: FRIKLRW
B37: WRLRLRW (peptide)
peptide: WRLRLRW
B38: FRIWIRYW (peptide)
peptide: FRIWIRYW
B39: WRIWIRAW (peptide)
peptide: WRIWIRAW
B40: ILRYWH (peptide)
peptide: ILRYWH
B41: RIRIWKW (peptide)
peptide: RIRIWKW
B42: RIRAWIW (peptide)
peptide: RIRAWIW
B43: YKLHIRHW (peptide)
peptide: YKLHIRHW
B44: LFYLRLR (peptide)
peptide: LFYLRLR
B45: RIRRWIW (peptide)
peptide: RIRRWIW
B46: WRIRLRGW (peptide)
peptide: WRIRLRGW
B47: WRIWIRYR (peptide)
peptide: WRIWIRYR
B48: WRIWIRYL (peptide)
peptide: WRIWIRYL
B49: WEIRIRW (peptide)
peptide: WEIRIRW
B50: IWIRYWRW (peptide)
peptide: IWIRYWRW
B51: WRIAIRW (peptide)
peptide: WRIAIRW
B52: WRILIRYW (peptide)
peptide: WRILIRYW
B53: LRIWIRYL (peptide)
peptide: LRIWIRYL
B54: WIRLYWRW (peptide)
peptide: WIRLYWRW
B55: WRINIRYW (peptide)
peptide: WRINIRYW
B56: RIRIWAW (peptide)
peptide: RIRIWAW
B57: RIWIRYW (peptide)
peptide: RIWIRYW
B58: WOIOIOW (peptide)
peptide: W[Orn]I[Orn]I[Orn]W
B59: WR(NMe)IRIRW (peptide)
peptide: WR[NMeI]RIRW
B60: WYRVRGRVW (peptide)
peptide: WYRVRGRVW
B61: WWIRIRYWH (peptide)
peptide: WWIRIRYWH
B62: WRIEIRW (peptide)
peptide: WRIEIRW
B63: IRIWVW (peptide)
peptide: IRIWVW
B64: WRIWLWYR (peptide)
peptide: WRIWLWYR
B65: WRIWIRYW (peptide)
peptide: WRIWIRYW
B66: RIRIWLW (peptide)
peptide: RIRIWLW
B67: RIWLRVW (peptide)
peptide: RIWLRVW
B68: IRLIVW (peptide)
peptide: IRLIVW
B69: IRLWLW (peptide)
peptide: IRLWLW

These binders were tested against His-Tau40P301L Tau (UniProt P10636-8 1-441) (assay: cell-based or functional assay).
His-Tau40P301L Tau, sequence (P10636 other isoform, or with tags, fused parts or gaps limits assumed): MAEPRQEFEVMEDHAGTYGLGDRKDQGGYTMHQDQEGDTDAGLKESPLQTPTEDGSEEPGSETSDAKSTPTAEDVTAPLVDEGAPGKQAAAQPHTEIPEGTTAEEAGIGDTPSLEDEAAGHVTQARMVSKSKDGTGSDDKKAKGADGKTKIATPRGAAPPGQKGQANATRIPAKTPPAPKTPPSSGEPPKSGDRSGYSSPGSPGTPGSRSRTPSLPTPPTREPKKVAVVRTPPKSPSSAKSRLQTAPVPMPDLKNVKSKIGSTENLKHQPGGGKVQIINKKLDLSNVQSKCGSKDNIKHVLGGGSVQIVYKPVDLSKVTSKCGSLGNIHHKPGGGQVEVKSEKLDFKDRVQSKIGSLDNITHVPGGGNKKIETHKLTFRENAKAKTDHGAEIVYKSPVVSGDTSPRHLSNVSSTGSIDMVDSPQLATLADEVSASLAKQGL

Row | Binder | IC50 (µM), Tau40 assay (ThT)
1 | B1 | 6.13 µM
2 | B2 | 0.84 µM and 1.38 µM
3 | B3 | 4.08 µM
4 | B4 | 0.55 µM
5 | B5 | 2.4 µM and 2.31 µM
6 | B6 | 7.67 µM
7 | B7 | 2.12 µM
8 | B8 | 2.39 µM
9 | B9 | 2.95 µM
10 | B10 | 2.28 µM
11 | B11 | 2.59 µM
12 | B12 | 2.96 µM
13 | B13 | 2.82 µM
14 | B14 | 1.59 µM and 1.8 µM
15 | B15 | 2.76 µM
16 | B16 | 0.85 µM
17 | B17 | 1.71 µM
18 | B18 | 2.54 µM
19 | B19 | 2.39 µM
20 | B20 | 1.08 µM
21 | B21 | 2.44 µM

Row | Binder | IC50 (µM), Tau40 assay (ThT)
22 | B22 | 1.81 µM and 1.85 µM
23 | B23 | 1.74 µM
24 | B24 | 3.11 µM
25 | B25 | 8.01 µM
26 | B26 | 1.69 µM
27 | B27 | 2.6 µM
28 | B28 | 2.78 µM
29 | B29 | 5.51 µM
30 | B30 | 2.89 µM
31 | B31 | 6.01 µM
32 | B32 | 5.2 µM
33 | B33 | 2.42 µM
34 | B34 | 12 µM
35 | B35 | 2.73 µM
36 | B36 | 2.6 µM
37 | B37 | 0.23 µM
38 | B38 | 2.12 µM
39 | B39 | 3.54 µM
40 | B40 | 2.49 µM
41 | B41 | 5.71 µM
42 | B42 | 14.6 µM

Row | Binder | IC50 (µM), Tau40 assay (ThT)
43 | B43 | 5.72 µM
44 | B44 | 7.13 µM
45 | B45 | 4.55 µM
46 | B46 | 1.74 µM and 1.91 µM
47 | B47 | 2.64 µM
48 | B48 | 4.09 µM
49 | B49 | 11.1 µM
50 | B50 | 2.73 µM
51 | B51 | 4.01 µM
52 | B52 | 14.6 µM
53 | B53 | 2.66 µM
54 | B54 | 2.42 µM and 2.38 µM
55 | B55 | 7.45 µM
56 | B56 | 8.38 µM
57 | B57 | 2.42 µM
58 | B58 | 1.17 µM
59 | B59 | 1.48 µM
60 | B60 | 6.4 µM and 6.5 µM
61 | B61 | 2.16 µM and 2.3 µM
62 | B62 | 4.84 µM

Target: T1, Ac-VQIINK-NH2
Test: cell-based or functional assay

Row | Binder | IC50 (µM), VQIINK Inhibition (ThT)
63 | B2 | 2.38 µM
64 | B5 | 1.35 µM
65 | B63 | 2.43 µM
66 | B13 | 9.77 µM
67 | B15 | 3.96 µM
68 | B16 | 2.43 µM
69 | B64 | 2.7 µM
70 | B65 | 1.89 µM
71 | B18 | 2.76 µM
72 | B21 | 2.01 µM
73 | B27 | 6.02 µM
74 | B28 | 4.86 µM
75 | B66 | 1.93 µM
76 | B33 | 1.78 µM
77 | B35 | 4.27 µM and 5.47 µM
78 | B36 | 2.38 µM
79 | B37 | 2.22 µM
80 | B67 | 4.09 µM
81 | B47 | 3.33 µM
82 | B50 | 2.15 µM
83 | B68 | 3.01 µM
84 | B53 | 1.74 µM
85 | B54 | 1.86 µM
86 | B69 | 1.27 µM
87 | B57 | 4.87 µM
